Each block holds one substance with its values, some of them ahead of it.
What was measured:
[1] = target: actin (thin filament, F-actin) of bovine myocardium (bovine (endogenous in left ventricle and left atrium)) (UniProt Q3ZC07)
[2] = target: actin (thin filament, F-actin) of bovine myocardium (bovine (endogenous in left ventricle and left atrium)) (UniProt Q3ZC07); remark: listed apart in the source
[3] = target: actin (thin filament, F-actin) of bovine myocardium (bovine (endogenous in left ventricle and left atrium)) (UniProt Q3ZC07); remark: listed apart in the source
[4] = target: actin (thin filament, F-actin) of mouse left ventricular myocardium (mouse (endogenous in C57/BL6 left ventricle)) (UniProt P68033)
[5] = target: actin (thin filament, F-actin) of mouse left ventricular myocardium (mouse (endogenous in C57/BL6 left ventricle)) (UniProt P68033); remark: listed apart in the source
[6] = target: actin (thin filament, F-actin) of mouse left ventricular myocardium (mouse (endogenous in C57/BL6 left ventricle)) (UniProt P68033); remark: listed apart in the source
[7] = target: actin (thin filament, F-actin) of mouse left ventricular myocardium (mouse (endogenous in C57/BL6 left ventricle)) (UniProt P68033); remark: listed apart in the source

decrease of hysteresis (area of the force-length loop of stretch-release cycles) of skinned BLA after actin extraction with gelsolin, at SL 2.25 μm [1]: 35%
reduction of total passive tension during stretch of skinned BLA after thin filament (actin) extraction with gelsolin, at SL 2.25 μm [2]: 10%
reduction of titin-based passive tension of skinned BLA after thin filament (actin) extraction with gelsolin, at SL 2.25 μm (calculated from total tension with titin's fractional contribution) [3]: 12%
Substance: titin of bovine left atrial myocardium, mainly the N2BA isoform (natural protein)

decrease of hysteresis (area of the force-length loop of stretch-release cycles) of skinned BLV after actin extraction with gelsolin, at SL 2.25 μm [1]: 52%
reduction of total passive tension during stretch of skinned BLV after thin filament (actin) extraction with gelsolin, at SL 2.25 μm [2]: 17%
reduction of titin-based passive tension of skinned BLV after thin filament (actin) extraction with gelsolin, at SL 2.25 μm (calculated from total tension with titin's fractional contribution) [3]: 20%
Substance: titin of bovine left ventricular myocardium, a mixture of the N2B and N2BA isoforms (natural protein)

decrease of hysteresis (area of the force-length loop of stretch-release cycles) of skinned MLV after actin extraction with gelsolin, at SL 2.25 μm [4]: 33%
decrease of passive stiffness/tension during stretch of skinned MLV with both S100A1 (1 μg/μL, Sigma) and calcium (pCa 6.8), relative to pCa 9.0; stretch speeds 0.1 and 2.0 length/sec [5]: < 20%
reduction of total passive tension during stretch of skinned MLV after thin filament (actin) extraction with gelsolin, at SL 2.25 μm [6]: 22%
reduction of titin-based passive tension of skinned MLV after thin filament (actin) extraction with gelsolin, at SL 2.25 μm (calculated from total tension with titin's fractional contribution) [7]: 44%
Substance: titin (connectin) of mouse left ventricular myocardium, predominately the N2B isoform (natural protein)

From PMC2855102
